# Data reported in US7056679.
# Target: lactate dehydrogenase (LDH)
# Assay: phage ELISA, 405 nm; LDH coated
row,Binder,LDH (OD)
1,"DAGIGWVGSMWFPPGCIGACAAAGAPVPYPDPLEPRP (peptide, not shown: large carriers) [DGI-2-20R-4-E82]",1.1
2,"RNWLDKDCVWMGDCGARAGEAAAGAPVPYPDPLEPRP (peptide, not shown: large carriers) [DGI-2-20F-4-E3]",0.9
3,"RWSICRGLQYSIPGCAVEDLSDVMAAAAGAPVPYPDPLEPRP (peptide, not shown: large carriers) [DGI-2-20C-4-H316]",1
4,"LHFGSVMGWRPPGSLWSRPFGQVHPRSWSGSAAAGAPVPYPDPLEPRP (peptide, not shown: large carriers) [DGI-2-40F-3-D11]",1.3
5,"MSTLQGPGHLFQMLRRASLGAAAGAPVPYPDPLEPRP (peptide, not shown: large carriers) [DGI-2-20R-4-H12]",1.3
6,"GSVLERGCLEFSGFCFSLGHAAAGAPVPYPDPLEPRP (peptide, not shown: large carriers) [DGI-2-20F-3-C1]",1
7,"LQIVRPAGWKMPGQVGYYIGAAAGAPVPYPDPLEPRP (peptide, not shown: large carriers) [DGI-2-20R-3-A9]",1
8,"DGI-2-40F-4-F6 (peptide, not shown: large carriers) peptide: SYRNFAMQSSLQVRRGSVVEDGTCWWEGVRCYSGAAAGAPVPYPDPLEPRP",1
9,"LTPYSLARSWLSGRPSTGATAAAGAPVPYPDPLEPRP (peptide, not shown: large carriers) [DGI-2-20F-3-C12]",1
10,"SWRLWVSGELQGDRRKGLRGAAAGAPVPYPDPLEPRP (peptide, not shown: large carriers) [DGI-2-20R-3-B7]",1
11,"MGSLGPFGNINSLASGIGSVRNRPLLPLHGSPAAAGAPVPYPDPLEPRP (peptide, not shown: large carriers) [DGI-2-40F-3-D72]",1.1
12,"LSHPMSPLRAASQMALTQGVAAAGAPVPYPDPLEPRP (peptide, not shown: large carriers) [DGI-2-20R-4-H7]",1.2
13,"TSCQVMFLAGQHLLSRVPRLAAAGAPVPYPDPLEPRP (peptide, not shown: large carriers) [DGL-2-20R-3-B6]",1
14,"TANGHRYGGCGLWCKWMSGMAAAGAPVPYPDPLEPRP (peptide, not shown: large carriers) [DGI-2-20R-4-E2]",1.1
15,"DGI-2-40F-3-D7 (peptide, not shown: large carriers) peptide: ALRSLGSGGFGWQAGRASPQGMTHFPYFGWSGMPTARVRPAAAGAPVPYPDPLEPRP",1
16,"DGI-2-40F-3-D6 (peptide, not shown: large carriers) peptide: GLEPVPFQTDKRIAMGWTREWLVNGYGAAHRRDARMQSGHAAAGAPVPYPDPLEPRP",1
17,"GLRACDTYLGFCVGARRIDDAAAGAPVPYPDPLEPRP (peptide, not shown: large carriers) [DGI-2-20F-3-B102]",1
18,"DGI-2-40F-3-C6 (peptide, not shown: large carriers) peptide: QMFSKGNWLAHPEGGVALGLSRESQLFRSCREFGYCMGPMAAAGAPVPYPDPLEPRP",0.8
19,"DGI-2-40F-3-D12 (peptide, not shown: large carriers) peptide: QGSAHVVRPPGVYDVPWKVGMFFHPQNWPNSWGRAYFRSGAAAGAPVPYPDPLEPRP",1

row,Binder,LDH (OD)
1,"GNKCFPPHDLFWDPCDQLQSAAAGAPVPYPDPLEPRP (peptide, not shown: large carriers) [DGI-2-20R-4-F6]",1
2,"DGI-2-40F-4-F12 (peptide, not shown: large carriers) peptide: GLYRRAGDASVGFSRWGRFDCQVYFSVECLLGSSWGGYSAAAGAPVPYPDPLEPRP",0.9
3,"ACSVGTALVFPQRWWYLGRSAAAGAPVPYPDPLEPRP (peptide, not shown: large carriers) [DGL-2-20R-3-D6]",1.1
4,"SLSLYWDAQVGCEVFWGYCVAAAGAPVPYPDPLEPRP (peptide, not shown: large carriers) [DGI-2-20R-3-C10]",1
5,"RFWSVSYQGGRVMCREWGYCLPIAAAGAPVPYPDPLEPRP (peptide, not shown: large carriers) [DGI-2-40F-3-C92]",0.8
6,"LSLLSVVVRSMGASAPQRQVAAAGAPVPYPDPLEPRP (peptide, not shown: large carriers) [DGI-2-20F-3-A7]",0.9
7,"DGI-2-40F-3-B11 (peptide, not shown: large carriers) peptide: LAPMFLQNQVRTWAASRRPLPAGPSNARCETGSLSPWVPCAAAGAPVPYPDPLEPRP",0.9
8,"TPDRCLIYSSIQCLLEYSARRGSADAAAGAPVPYPDPLEPRP (peptide, not shown: large carriers) [DGI-2-20C-3-C65]",1
9,"DGI-2-40F-3-B122 (peptide, not shown: large carriers) peptide: HSGNRQSGSRRTHLLNIFCSSDTFVFPGWSAYLSRVCPGDAAAGAPVPYPDPLEPRP",0.8
10,"DGI-2-40F-3-B116 (peptide, not shown: large carriers) peptide: GVVRAQQGLRYELQGDRYRLRRTQWLTVTYCSPSWAFAGCAAAGAPVPYPDPLEPRP",0.8
11,"RWSLPAYLCRFVSQASCNSRAAAGAPVPYPDPLEPRP (peptide, not shown: large carriers) [DGI-2-20R-3-C12]",1
12,"WAGSTDLWQLWSLWVKPELRAAAGAPVPYPDPLEPRP (peptide, not shown: large carriers) [DGI-2-20F-3-B7]",0.9
13,"PAMGHCMQVLGPVLEGRSRDQVGRAAAGAPVPYPDPLEPRP (peptide, not shown: large carriers) [DGI-2-20R-4-G6]",1.1
14,"LTWGPQFGSLQVYSRHRGLPAAAGAPVPYPDPLEPRP (peptide, not shown: large carriers) [DGI-2-20R-4-E4]",1.2
15,"DGL-2-40F-3-D10 (peptide, not shown: large carriers) peptide: TLVTEGNKGSVKAHKDIGVWQLWWDWLSVTDSETVGRVSHAAAGAPVPYPDPLEPRP",0.9
16,"FSSTGILLRSGRATAVGHVTAAAGAPVPYPDPLEPRP (peptide, not shown: large carriers) [DGI-2-20F-3-A6]",1.1
17,"GMWIRPNGHMFLQGGYTARSAAAGAPVPYPDPLEPRP (peptide, not shown: large carriers) [DGI-2-20R-4-G8]",1.1
18,"VAFGEQIRVAMAGTLWQRWRAAAGAPVPYPDPLEPRP (peptide, not shown: large carriers) [DGI-2-20R-3-D5]",1.1
19,"YDQVWNSLLAAVLGGQELVNAAAGAPVPYPDPLEPRP (peptide, not shown: large carriers) [DGI-2-20F-3-D112]",1

row,Binder,LDH (OD)
1,"LSVFRPGQFPHVGARGVSRTAAAGAPVPYPDPLEPRP (peptide, not shown: large carriers) [DGI-2-20R-4-G32]",1.1
2,"DGI-2-40F-3-B10 (peptide, not shown: large carriers) peptide: MQAASTLSTYMGAIRMGYPILHWDRGGVQRVDPGLYRGRVAAAGAPVPYPDPLEPRP",1
3,"RCFQDGRMLALSPTYLIRRSVSPLVVGPLPTPAAAGAPVPYPDPLEPRP (peptide, not shown: large carriers) [DGI-2-40F-3-A24]",0.9
4,"MAVLPAARDFGGVVQGGVSGAAAGAPVPYPDPLEPRP (peptide, not shown: large carriers) [DGI-2-20F-3-C2]",1
5,"DGI-2-40F-3-C7 (peptide, not shown: large carriers) peptide: HPWVTNMLVFQRPPPPGFWLSDTTPRQRNGLGQVERPSVDAAAGAPVPYPDPLEPRP",0.8
6,"LSRIWRGVIESAREVESRGIAAAGAPVPYPDPLEPRP (peptide, not shown: large carriers) [DGI-2-20F-3-B1]",0.9
7,"LHRLGQSMGGTLDHLQGWGVAAAGAPVPYPDPLEPRP (peptide, not shown: large carriers) [DGI-2-20R-4-E5]",1.1
8,"DGI-2-40F-3-D9 (peptide, not shown: large carriers) peptide: RRTSADTDQLSRWEGAQAFSSLRSALSERLDSLRPGLPPSAAAGAPVPYPDPLEPRP",0.8
9,"FSSVLGLLDRRGVPVVVGEDAAAGAPVPYPDPLEPRP (peptide, not shown: large carriers) [DGI-2-20F-3-C3]",0.9
10,"LVIQCSASVVACDLYWNYVGCLAAGAAAGAPVPYPDPLEPRP (peptide, not shown: large carriers) [DGI-2-20C-3-D12]",1
11,"DGI-2-40F-3-C52 (peptide, not shown: large carriers) peptide: GLLFTSSPYQCFWVHCTLTMSPLSVLGDLSSTIGRMRASRAAAGAPVPYPDPLEPRP",0.8
12,"DGI-2-40F-3-B72 (peptide, not shown: large carriers) peptide: PKDGAAFKGSDFIQGGQTVMERAPALWWRDGGGQWEAPSTAAAGAPVPYPDPLEPRP",0.7
13,"DGI-2-40F-3-B95 (peptide, not shown: large carriers) peptide: DYKTCVSQHVHPLFGEYFYHKVTHMSILSPTFRVTSLYGKAAAGAPVPYPDPLEPRP",0.8
14,"DGI-2-40F-3-B5 (peptide, not shown: large carriers) peptide: RSRSSSGASGSMLRVQNHMVLGSWMVRQPMGSMTPFHGHGAAAGAPVPYPDPLEPRP",0.9
15,"DGI-2-40F-3-B4 (peptide, not shown: large carriers) peptide: LWLPCGLLVRPAQFYFYFSPLRHFLSSSVGSLSFPLSLLVAAAGAPVPYPDPLEPRP",0.8
16,"DGI-2-40F-3-B6 (peptide, not shown: large carriers) peptide: QSNVWVLVGVIMQGVWYQRQHYCVYVMLLSDQVSVLLAVAAAAGAPVPYPDPLEPRP",0.8
17,"DGI-2-40F-3-A7 (peptide, not shown: large carriers) peptide: CAYRWGLFRGPGRVDYDLQVVGIMMWPGPIPDRSSRGSVAAAAGAPVPYPDPLEPRP",0.8
18,"DGI-2-40F-3-A12 (peptide, not shown: large carriers) peptide: RRTQPAYRSGADDRTSGFYCYVTSALSAGAWMPFLPRRLAAAAGAPVPYPDPLEPRP",0.8
